The record followed here is US20140105889A1 (published 2014).

Holding throughout (experiment): SPR (Biacore), FcγR over captured antibody; amount bound relative to IL6R-BF648/IL6R-L x100
One experiment has as its target T1, human FcγRIIa type R (human, UniProt P12318 36-217).
T1 construct: also called FcγRIIaR; FcγRIIa(R)
T1 chain: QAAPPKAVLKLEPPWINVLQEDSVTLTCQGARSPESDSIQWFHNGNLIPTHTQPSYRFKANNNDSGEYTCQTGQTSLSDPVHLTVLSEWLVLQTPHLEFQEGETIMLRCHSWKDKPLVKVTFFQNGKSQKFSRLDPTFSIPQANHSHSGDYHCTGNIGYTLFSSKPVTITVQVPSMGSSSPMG

A further experiment addresses T2, human FcγRIIb (human, UniProt P31994 43-217).
T2 construct: also called FcγIIB
T2 sequence: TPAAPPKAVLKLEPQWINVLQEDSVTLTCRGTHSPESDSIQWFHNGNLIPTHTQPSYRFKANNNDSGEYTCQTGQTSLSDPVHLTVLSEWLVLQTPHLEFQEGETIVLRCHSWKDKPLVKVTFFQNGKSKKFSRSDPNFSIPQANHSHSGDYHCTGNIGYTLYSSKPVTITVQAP

The target in a further experiment is T3, human FcγRIa (human, UniProt P12314 16-292, limits assumed).
T3 construct: also called CD64
T3 sequence (P12314 16-292 limits assumed): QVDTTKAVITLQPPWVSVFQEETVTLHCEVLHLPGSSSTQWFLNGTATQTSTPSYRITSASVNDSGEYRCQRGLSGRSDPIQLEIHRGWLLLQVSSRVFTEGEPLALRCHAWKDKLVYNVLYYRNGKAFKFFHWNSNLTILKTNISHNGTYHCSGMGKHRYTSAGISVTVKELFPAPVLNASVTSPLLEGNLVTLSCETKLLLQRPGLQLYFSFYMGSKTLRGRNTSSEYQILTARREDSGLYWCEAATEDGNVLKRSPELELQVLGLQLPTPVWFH

In another experiment the target is T4, human FcγRIIIa type V (human, UniProt P08637 17-208, limits assumed).
T4 construct: also called FcγRIIIaV; FcγRIIIa(V)
T4 sequence (P08637 other isoform, or with tags, fused parts or gaps limits assumed): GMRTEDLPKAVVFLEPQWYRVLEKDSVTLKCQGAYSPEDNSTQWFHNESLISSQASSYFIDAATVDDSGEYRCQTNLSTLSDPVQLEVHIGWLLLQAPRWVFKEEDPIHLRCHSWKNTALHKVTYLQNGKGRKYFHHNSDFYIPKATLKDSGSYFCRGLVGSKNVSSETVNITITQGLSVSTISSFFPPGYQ

In a further experiment the target is T5, human FcγRIIa type H (human, UniProt P12318 36-217).
T5 construct: Whole entry named for FcγRIIa allotype H131 (AAH20823.1); also called FcγRIIaH; FcγRIIa(H)
T5 sequence: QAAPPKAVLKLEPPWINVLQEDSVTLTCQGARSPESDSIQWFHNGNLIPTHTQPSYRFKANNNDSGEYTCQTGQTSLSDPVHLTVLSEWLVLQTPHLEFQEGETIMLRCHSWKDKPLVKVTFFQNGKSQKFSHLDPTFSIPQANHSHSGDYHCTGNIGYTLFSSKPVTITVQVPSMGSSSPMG

B1: IL6R-B3/IL6R-L (antibody, human IgG1)
heavy: not shown
light: DIQMTQSPSSLSASVGDRVTITCRASQDISSYLNWYQQKPGKAPKLLIYYTSRLHSGVPSRFSGSGSGTDFTFTISSLQPEDIATYYCQQGNTLPYTFGQGTKVEIK
notes: IL6R-G1d with K439E (EU numbering); copies: 2 + 2
B1: the relative binding with human FcγRIIa type R was 625 relative value (IL6R-BF648/IL6R-L = 100); with human FcγRIIb, 58 relative value (IL6R-BF648/IL6R-L = 100); with human FcγRIa, 145 relative value (IL6R-BF648/IL6R-L = 100); with human FcγRIIIa type V, 3260 relative value (IL6R-BF648/IL6R-L = 100); in the experiment with human FcγRIIa type H, 1600 relative value (IL6R-BF648/IL6R-L = 100).

B2: IL6R-2B171/IL6R-L (antibody, human IgG1)
heavy: QVQLQESGPGLVKPSETLSLTCAVSGHSISHDHAWSWVRQPPGEGLEWIGFISYSGITNYNPSLQGRVTISRDNSKNTLYLQMNSLRAEDTAVYYCARSLARTTAMDYWGEGTLVTVSSASTKGPSVFPLAPSSKSTSGGTAALGCLVKDYFPEPVTVSWNSGALTSGVHTFPAVLQSSGLYSLSSVVTVPSSSLGTQTYICNVNHKPSNTKVDKKVEPKSCDKTHTCPPCPAPELLGGDSVFLFPPKPKDTLMISRTPEVTCVVVDVSHEDPEVKFNWYVDGVEVHNAKTKPREEQYNSTYRVVSVLTVLHQDWLNGKEYKCKLSNKALPAPIEKTISKAKGQPREPQVYTLPPSRDELTKNQVSLTCLVKGFYPSDIAVEWESNGQPENNYKTTPPVLDSDGSFFLYSKLTVDKSRWQQGNVFSCSVMHEALHNHYTQESLSLSP
light: DIQMTQSPSSLSASVGDRVTITCRASQDISSYLNWYQQKPGKAPKLLIYYTSRLHSGVPSRFSGSGSGTDFTFTISSLQPEDIATYYCQQGNTLPYTFGQGTKVEIK
notes: copies: 2 + 2
Take B2: the relative binding is 117 relative value (IL6R-BF648/IL6R-L = 100) with human FcγRIIa type R; 113 relative value (IL6R-BF648/IL6R-L = 100) with human FcγRIIb; 116 relative value (IL6R-BF648/IL6R-L = 100) with human FcγRIa; 122 relative value (IL6R-BF648/IL6R-L = 100) with human FcγRIIIa type V; 115 relative value (IL6R-BF648/IL6R-L = 100) in the experiment with human FcγRIIa type H.

B3: IL6R-2B169/IL6R-L (antibody, human IgG1)
heavy: QVQLQESGPGLVKPSETLSLTCAVSGHSISHDHAWSWVRQPPGEGLEWIGFISYSGITNYNPSLQGRVTISRDNSKNTLYLQMNSLRAEDTAVYYCARSLARTTAMDYWGEGTLVTVSSASTKGPSVFPLAPSSKSTSGGTAALGCLVKDYFPEPVTVSWNSGALTSGVHTFPAVLQSSGLYSLSSVVTVPSSSLGTQTYICNVNHKPSNTKVDKKVEPKSCDKTHTCPPCPAPELLGGDSVFLFPPKPKDTLMISRTPEVTCVVVDVSHEDPEVKFNWYVDGVEVHNAKTKPREEQYNSTYRVVSVLTVLHQDWLNGKEYKCKISNKALPAPIEKTISKAKGQPREPQVYTLPPSRDELTKNQVSLTCLVKGFYPSDIAVEWESNGQPENNYKTTPPVLDSDGSFFLYSKLTVDKSRWQQGNVFSCSVMHEALHNHYTQESLSLSP
light: DIQMTQSPSSLSASVGDRVTITCRASQDISSYLNWYQQKPGKAPKLLIYYTSRLHSGVPSRFSGSGSGTDFTFTISSLQPEDIATYYCQQGNTLPYTFGQGTKVEIK
notes: copies: 2 + 2
Regarding B3, the relative binding was 104 relative value (IL6R-BF648/IL6R-L = 100) with human FcγRIIb, 73 relative value (IL6R-BF648/IL6R-L = 100) in the experiment with human FcγRIa, 94 relative value (IL6R-BF648/IL6R-L = 100) with human FcγRIIIa type V and 83 relative value (IL6R-BF648/IL6R-L = 100) with human FcγRIIa type H.

B4: IL6R-2B128/IL6R-L (antibody, human IgG1)
heavy: QVQLQESGPGLVKPSETLSLTCAVSGHSISHDHAWSWVRQPPGEGLEWIGFISYSGITNYNPSLQGRVTISRDNSKNTLYLQMNSLRAEDTAVYYCARSLARTTAMDYWGEGTLVTVSSASTKGPSVFPLAPSSKSTSGGTAALGCLVKDYFPEPVTVSWNSGALTSGVHTFPAVLQSSGLYSLSSVVTVPSSSLGTQTYICNVNHKPSNTKVDKKVEPKSCDKTHTCPPCPAPELLGGDSVFLFPPKPKDTLMISRTPEVTCVVVDVSHEDPEVKFNWYVDGVEVHNAKTKPREEQDNSTYRVVSVLTVLHQDWLNGKEYKCKVSNKALPAPIEKTISKAKGQPREPQVYTLPPSRDELTKNQVSLTCLVKGFYPSDIAVEWESNGQPENNYKTTPPVLDSDGSFFLYSKLTVDKSRWQQGNVFSCSVMHEALHNHYTQESLSLSP
light: DIQMTQSPSSLSASVGDRVTITCRASQDISSYLNWYQQKPGKAPKLLIYYTSRLHSGVPSRFSGSGSGTDFTFTISSLQPEDIATYYCQQGNTLPYTFGQGTKVEIK
notes: copies: 2 + 2
For B4, the relative binding with human FcγRIIa type R was 87 relative value (IL6R-BF648/IL6R-L = 100); with human FcγRIIb it was 103 relative value (IL6R-BF648/IL6R-L = 100); in the experiment with human FcγRIa, 95 relative value (IL6R-BF648/IL6R-L = 100); with human FcγRIIIa type V, 96 relative value (IL6R-BF648/IL6R-L = 100); with human FcγRIIa type H, 37 relative value (IL6R-BF648/IL6R-L = 100).

B5: IL6R-2B002/IL6R-L (antibody, human IgG1)
heavy: QVQLQESGPGLVKPSETLSLTCAVSGHSISHDHAWSWVRQPPGEGLEWIGFISYSGITNYNPSLQGRVTISRDNSKNTLYLQMNSLRAEDTAVYYCARSLARTTAMDYWGEGTLVTVSSASTKGPSVFPLAPSSKSTSGGTAALGCLVKDYFPEPVTVSWNSGALTSGVHTFPAVLQSSGLYSLSSVVTVPSSSLGTQTYICNVNHKPSNTKVDKKVEPKSCDKTHTCPPCPAPDLLGGDSVFLFPPKPKDTLMISRTPEVTCVVVDVSHEDPEVKFNWYVDGVEVHNAKTKPREEQYNSTYRVVSVLTVLHQDWLNGKEYKCKVSNKALPAPIEKTISKAKGQPREPQVYTLPPSRDELTKNQVSLTCLVKGFYPSDIAVEWESNGQPENNYKTTPPVLDSDGSFFLYSKLTVDKSRWQQGNVFSCSVMHEALHNHYTQESLSLSP
light: DIQMTQSPSSLSASVGDRVTITCRASQDISSYLNWYQQKPGKAPKLLIYYTSRLHSGVPSRFSGSGSGTDFTFTISSLQPEDIATYYCQQGNTLPYTFGQGTKVEIK
notes: copies: 2 + 2
Regarding B5, the relative binding was 103 relative value (IL6R-BF648/IL6R-L = 100) with human FcγRIIa type R, 118 relative value (IL6R-BF648/IL6R-L = 100) with human FcγRIa, 147 relative value (IL6R-BF648/IL6R-L = 100) in the experiment with human FcγRIIIa type V and 147 relative value (IL6R-BF648/IL6R-L = 100) in the experiment with human FcγRIIa type H.

B6: IL6R-BP107/IL6R-L (antibody, human IgG1)
heavy: QVQLQESGPGLVKPSETLSLTCAVSGHSISHDHAWSWVRQPPGEGLEWIGFISYSGITNYNPSLQGRVTISRDNSKNTLYLQMNSLRAEDTAVYYCARSLARTTAMDYWGEGTLVTVSSASTKGPSVFPLAPSSKSTSGGTAALGCLVKDYFPEPVTVSWNSGALTSGVHTFPAVLQSSGLYSLSSVVTVPSSSLGTQTYICNVNHKPSNTKVDKKVEPKSCDKTHTCPPCPAPELLGGDSVFLFPPKPKDTLMISRTPEVTCVVVDVSEEDPEVKFNWYVDGVEVHNAKTKPREEQYNSTYRVVSVLTVLHQDWLNGKEYKCKVSNKALPAPIEKTISKAKGQPREPQVYTLPPSRDELTKNQVSLTCLVKGFYPSDIAVEWESNGQPENNYKTTPPVLDSDGSFFLYSKLTVDKSRWQQGNVFSCSVMHEALHNHYTQESLSLSP
light: DIQMTQSPSSLSASVGDRVTITCRASQDISSYLNWYQQKPGKAPKLLIYYTSRLHSGVPSRFSGSGSGTDFTFTISSLQPEDIATYYCQQGNTLPYTFGQGTKVEIK
notes: copies: 2 + 2
Consider B6, for which the relative binding with human FcγRIIa type R is 147 relative value (IL6R-BF648/IL6R-L = 100); with human FcγRIIb, 118 relative value (IL6R-BF648/IL6R-L = 100); in the experiment with human FcγRIa, 123 relative value (IL6R-BF648/IL6R-L = 100); with human FcγRIIIa type V, 129 relative value (IL6R-BF648/IL6R-L = 100).

B7: IL6R-BP078/IL6R-L (antibody, human IgG1)
heavy: QVQLQESGPGLVKPSETLSLTCAVSGHSISHDHAWSWVRQPPGEGLEWIGFISYSGITNYNPSLQGRVTISRDNSKNTLYLQMNSLRAEDTAVYYCARSLARTTAMDYWGEGTLVTVSSASTKGPSVFPLAPSSKSTSGGTAALGCLVKDYFPEPVTVSWNSGALTSGVHTFPAVLQSSGLYSLSSVVTVPSSSLGTQTYICNVNHKPSNTKVDKKVEPKSCDKTHTCPPCPAPELLGGDSVFLFPPKPKDTLMISRTPEVTCVVVDVSHEDPEVKFNWYVDGVEVHNAKTKPREEQYNSTYRVVSVLTVLHQDWLNGKEYKCKVSNKALPMPIEKTISKAKGQPREPQVYTLPPSRDELTKNQVSLTCLVKGFYPSDIAVEWESNGQPENNYKTTPPVLDSDGSFFLYSKLTVDKSRWQQGNVFSCSVMHEALHNHYTQESLSLSP
light: DIQMTQSPSSLSASVGDRVTITCRASQDISSYLNWYQQKPGKAPKLLIYYTSRLHSGVPSRFSGSGSGTDFTFTISSLQPEDIATYYCQQGNTLPYTFGQGTKVEIK
notes: copies: 2 + 2
Turning to B7, the results for the relative binding with human FcγRIIa type R, in the experiment with human FcγRIIIa type V and with human FcγRIIa type H were 101 relative value (IL6R-BF648/IL6R-L = 100), 91 relative value (IL6R-BF648/IL6R-L = 100) and 89 relative value (IL6R-BF648/IL6R-L = 100), respectively.

B8: IL6R-2B172/IL6R-L (antibody, human IgG1)
heavy: QVQLQESGPGLVKPSETLSLTCAVSGHSISHDHAWSWVRQPPGEGLEWIGFISYSGITNYNPSLQGRVTISRDNSKNTLYLQMNSLRAEDTAVYYCARSLARTTAMDYWGEGTLVTVSSASTKGPSVFPLAPSSKSTSGGTAALGCLVKDYFPEPVTVSWNSGALTSGVHTFPAVLQSSGLYSLSSVVTVPSSSLGTQTYICNVNHKPSNTKVDKKVEPKSCDKTHTCPPCPAPELLGGDSVFLFPPKPKDTLMISRTPEVTCVVVDVSHEDPEVKFNWYVDGVEVHNAKTKPREEQYNSTYRVVSVLTVLHQDWLNGKEYKCKMSNKALPAPIEKTISKAKGQPREPQVYTLPPSRDELTKNQVSLTCLVKGFYPSDIAVEWESNGQPENNYKTTPPVLDSDGSFFLYSKLTVDKSRWQQGNVFSCSVMHEALHNHYTQESLSLSP
light: DIQMTQSPSSLSASVGDRVTITCRASQDISSYLNWYQQKPGKAPKLLIYYTSRLHSGVPSRFSGSGSGTDFTFTISSLQPEDIATYYCQQGNTLPYTFGQGTKVEIK
notes: copies: 2 + 2
Take B8: the relative binding with human FcγRIIa type R was 244 relative value (IL6R-BF648/IL6R-L = 100); with human FcγRIIb, 132 relative value (IL6R-BF648/IL6R-L = 100); with human FcγRIa it was 140 relative value (IL6R-BF648/IL6R-L = 100); with human FcγRIIIa type V it was 144 relative value (IL6R-BF648/IL6R-L = 100); with human FcγRIIa type H, 179 relative value (IL6R-BF648/IL6R-L = 100).
